Key:
Format in all cases: cell-based, human
X13 O-neg hiPSC line = assay: CHIR dose: hematopoietic/erythroid differentiation of agitated hPSC-MC aggregates; conditions: optimal dose of CHIR-99021, day 4
BR7 O-neg hiPSC line = assay: as above; conditions: optimal dose of CHIR-99021, day 4
[1] = system: X13 induced pluripotent stem cells (iPSCs) on microcarriers; assay: screening of Wnt pathway activators: mesoderm induction (T-bra, KDR+PDGFRα−) by flow cytometry; conditions: at 72 hours, compared to other Wnt pathway modulators
Procedure: (A) is a column graph showing two different concentrations of seven Wnt pathway activators (BIO, SB-216763, CHIR98014, Inhibitor VIII, Kenpaullone, DRF053 dihydrochloride and Wnt3a). which were selected from literature reviews and screened with CHIR99021 as a control for the disclosed hematopoietic differentiation protocol. The viability of the X13 induced pluripotent stem cells (iPSCs) on microcarriers were tabulated accordingly 24 hours post treatment of the various Wnt pathway modulators. […] (B) is a column graph showing the percentage of mesogerm induction.
Human induced pluripotent stem cell-microcarrier (hiPSC-MC) aggregates (1×10^6 cells/ml, or 1e6 cells/nil) were transferred to mesoderm induction medium (cytokines all from Stemcell Technologies) plus Stemline II Hematopoietic Stem Cell Expansion medium (SL2) in either 6-well ultra-low attachment plates (5 ml) under continuous agitation at 75 rpm or 125 ml spinner flasks (50 ml) under continuous agitation at 36 rpm. Daily medium changes as indicated: Day 0: SL2+30 ng/ml BMP4+50 ng/ml VEGF-165+40 ng/ml Activin A+12-15 μM CHIR-99021; Day 1: SL2+30 ng/ml BMP4+50 ng/ml VEGF-165+40 ng/ml Activin A; Day 2: SL2+20 ng/ml BMP4+30 ng/ml VEGF165+5 ng/ml Activin A+10 ng/ml bFGF+20 ng/ml SCF+0.4 ng/ml β-estradiol. Samples were collected on day 1 and day 3 for flow cytometry analysis of T-brachyury (T-Bra) and KDR/PDGFRα cells, respectively.

hES-3-MC aggregates = assay: BMP4-based differentiation of hES-3-MC aggregates from static or agitated hPSC expansion; conditions: BMP4-based protocol; for erythroid cells: starting from 2×10^5 hematopoietic precursors, repeated attempts; for T-bra: Day 2; for KDR: Day 4; for total hematopoietic precursors per well: after 2 weeks of differentiation; for total erythroblast per well: day 28
Description: To test the hypothesis that agitation condition may be a major factor for variable differentiation, hES-3 that was initially expanded under either static (static human pluripotent stem cell (hPSC) expansion) or agitation (agitated human pluripotent stem cell expansion) condition for 7 days were differentiated under static condition using a BMP4-based differentiation protocol. […] (FIG. 10). […] Like-wise, subsequent generation of erythroblast was also severely impaired in cultures derived from agitated as compared to static hPSC expansion group (total erythroblast per well: 4.11±2.4×10^4 vs 26.2±4.7×10^6, respectively, p=0.005; total CD235a population: 0.51±0.1% vs 51.8±2.0%, p<0.0001) (FIG. 1E).
(§1) Mesoderm induction of hPSC-MC aggregates using BMP4 based protocol has previously been described. One million HPSC-MC aggregates were cultured in Stemline II hematopoietic stem cell expansion medium (Sigma-Aldrich, USA) containing 50 ng/ml of BMP4 and 50 ng/ml of VEGF165 under static condition. 48 hours later, half the medium was removed and replaced with Stemline II medium containing 50 ng/ml of BMP4, 50 ng/ml of VEGF165 and 20 ng/ml of bFGF (all cytokines from STEMCELL Technologies). HPSC-MC aggregates were cultured for a further 48 hours before being used for hematopoietic precursors differentiation.
as §1, with “One” for “Mesoderm induction of hPSC-MC aggregates using BMP4 based protocol has previously been described. One”, “VEGF165.” for “VEGF165 under static condition.”, “STEMCELL.” for “STEMCELL”, “precursor expansion.” for “precursors differentiation.”
HPSC-MC aggregates were dissociated into single cells by treatment with TrypLE. Express (ThermoFisher Scientific) for 5 minutes at 37° C., passed through 40 μm cell strainer (Greiner Bio-one), centrifuged at 1300 rpm for 3 minutes to pellet cells, and rinsed once with phosphate buffered saline (PBS) before re-suspension in Stemline II medium. Two hundred thousand cells in 100 μl of Stemline II medium were transferred to a 6-well ultra-low attachment plate and cultured with Blast growth medium (BGM) for 2 weeks in static conditions as detailed herein.
Hematopoietic precursors were mixed with equal volume of Stemline II medium containing 50 ng/ml of SCF (STEMCELL. Technologies) and 3 U/ml EPO (Peprotech, USA), for an additional 7 days. Subsequently, cells were diluted 10-fold with PBS and pelleted by centrifugation at 3000 rpm for 10 minutes. Erythroblast cells were seeded at a concentration of 2.5×10^5 cells/ml in 3 ml of Stemline II media containing 1× Serum Replacement 3 (Sigma-Aldrich), 0.3% v/v Ex-CYTE growth enhancement media supplement (Merck, USA), 100 ng/ml SCF, 3 U/ml EPO, 1 μM hydrocortisone (Sigma-Aldrich), 200 μg/ml holo-transferrin (MP Biomedicals) and 1× penicillin-streptomycin (ThermoFisher Scientific) in 6-well ultra-low attachment plates under static condition. Cells were re-suspended in fresh media every 4 days and reseeded at 2.5×10^5cells/m=l when cell concentrations exceeded 2×10^6cells/ml. Cumulative fold-expansion was calculated by multiplying fold-expansion achieved between passaging of cells over the course of experiment(s).
For flow cytometric analysis of mesoderm and hematopoietic surface markers, cells were incubated for 15 minutes at room temperature with 1:50 diluted direct-conjugated antibodies. The following human antibodies were used: T-brachyury-FITC (R&D Systems), KDR-PE (Miltenyi Biotec), CD31-PE, CD43-FITC, CD 45-PE, CD71-APC, CD235a-FITC (all from BD Biosciences, USA). The following antibodies were used as isotype-controls: mouse IgG1-FITC and PE (Miltenyi Biotec, Germany), mouse IgG2bk-FITC and mouse IgG2ak-APC (BD Biosciences). […]

## Cc1c[nH]c(-c2cnc(NCCNc3ccc(C#N)cn3)nc2-c2ccc(Cl)cc2Cl)n1 [CHIR-99021, 6-[[2-[[4-(2,4-Dichlorophenyl)-5-(5-methyl-1H-imidazol-2-yl)-2-pyrimidinyl]amino]ethyl]amino]-3-pyridinecarbonitrile]
X13 O-neg hiPSC line
  Mesoderm induction % KDR+ PDGFRα−: 40.8%
BR7 O-neg hiPSC line
  Mesoderm induction % KDR+ PDGFRα−: 18.6%
[1]
  KDR+PDGFRα− population: significantly highest

B1: BMP4: bone morphogenic protein; BMP4-based protocol uses 50 ng/ml BMP4 (protein, UniProt P12644 293-408, looked up)
Bone morphogenetic protein 4: SPKHHSQRARKKNKNCRRHSLYVDFSDVGWNDWIVAPPGYQAFYCHGDCPFPLADHLNSTNHAIVQTLVNSVNSSIPKACCVPTELSAISMLYLDEYDKVVLKNYQEMVVEGCGCR
hES-3-MC aggregates; MC-aggregates expanded in agitation condition
  erythroid cells: 0.004-4.2×10^7 erythroid cells
hES-3-MC aggregates; MC-aggregates expanded in static condition
  erythroid cells: 0.25-7.3×10^7 erythroid cells
hES-3-MC aggregates; agitated hPSC expansion
  total CD235a population: 0.51±0.1%
  T-bra: 0.50±0.02%
  KDR: 1.1±0.12%
  total hematopoietic precursors per well: 1.39×10^5±2.18×10^4 per well
  total erythroblast per well: 4.11±2.4×10^4 per well
hES-3-MC aggregates; static hPSC expansion
  total CD235a population: 51.8±2.0%
  T-bra: 32.6±1.2%
  KDR: 27.9±3.3%
  total hematopoietic precursors per well: 5.77×10^6±6.30×10^5 per well
  total erythroblast per well: 26.2±4.7×10^6 per well
